Assays:
[1] = target: T1, aCBF5 protein (archaeal CBF5 RNA:Ψ-synthase), Pyrococcus abyssi, cleaved from GST (Pyrococcus abyssi, UniProt Q9V1A5 1-334); test: pull-down
T1 sequence (looked up): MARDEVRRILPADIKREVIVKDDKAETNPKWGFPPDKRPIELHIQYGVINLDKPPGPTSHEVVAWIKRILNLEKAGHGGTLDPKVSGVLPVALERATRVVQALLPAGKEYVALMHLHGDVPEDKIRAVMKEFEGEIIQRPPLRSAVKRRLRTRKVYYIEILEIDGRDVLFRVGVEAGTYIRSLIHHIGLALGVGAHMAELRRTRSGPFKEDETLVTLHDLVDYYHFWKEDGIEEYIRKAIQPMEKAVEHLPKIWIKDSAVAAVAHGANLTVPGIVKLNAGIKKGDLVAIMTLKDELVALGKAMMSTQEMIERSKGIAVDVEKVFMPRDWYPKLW

[2] = target: T1, aCBF5 protein (archaeal CBF5 …); test: native gel or EMSA
aCBF5;aNOP10 = target: T2, aCBF5;aNOP10 (Pyrococcus abyssi GE5;Pyrococcus abyssi …, UniProt Q9V1A5;Q9V0E3 1-334;1-60, |); test: EMSA
T2 sequence 1: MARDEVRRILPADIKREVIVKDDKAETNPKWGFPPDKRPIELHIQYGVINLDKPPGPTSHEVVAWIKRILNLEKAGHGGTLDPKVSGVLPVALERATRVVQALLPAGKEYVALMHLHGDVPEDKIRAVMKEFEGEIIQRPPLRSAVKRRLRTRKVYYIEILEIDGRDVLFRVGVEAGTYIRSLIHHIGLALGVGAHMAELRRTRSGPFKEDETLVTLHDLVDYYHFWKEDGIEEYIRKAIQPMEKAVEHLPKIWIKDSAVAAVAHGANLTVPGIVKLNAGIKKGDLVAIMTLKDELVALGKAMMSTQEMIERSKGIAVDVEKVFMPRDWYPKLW
T2 sequence 2: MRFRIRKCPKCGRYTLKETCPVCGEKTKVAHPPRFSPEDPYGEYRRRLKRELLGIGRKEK

aCBF5 = target: T3, aCBF5 (Pyrococcus abyssi GE5, UniProt Q9V1A5 1-334); test: EMSA
T3 sequence: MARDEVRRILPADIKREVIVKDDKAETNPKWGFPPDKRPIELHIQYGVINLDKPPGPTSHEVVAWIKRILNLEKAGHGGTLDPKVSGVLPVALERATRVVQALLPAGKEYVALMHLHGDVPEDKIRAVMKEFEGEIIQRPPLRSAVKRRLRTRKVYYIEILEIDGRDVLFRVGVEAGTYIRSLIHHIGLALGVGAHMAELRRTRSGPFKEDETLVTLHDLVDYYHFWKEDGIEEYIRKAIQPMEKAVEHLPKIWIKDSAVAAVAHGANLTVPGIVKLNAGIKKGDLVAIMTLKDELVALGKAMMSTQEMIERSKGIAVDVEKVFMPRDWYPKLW

B1: GST-aNOP10 fusion protein (natural protein, Pyrococcus abyssi, UniProt Q9V0E3 1-60, looked up)
chain: MRFRIRKCPKCGRYTLKETCPVCGEKTKVAHPPRFSPEDPYGEYRRRLKRELLGIGRKEK
binding result [1]: binds

B2: aNOP10 protein, Pyrococcus abyssi, cleaved from GST (natural protein, UniProt Q9V0E3 1-60, looked up)
chain: MRFRIRKCPKCGRYTLKETCPVCGEKTKVAHPPRFSPEDPYGEYRRRLKRELLGIGRKEK
binding result [2]: binds

B3: Pab91mtGA (structured_RNA)
RNA: GGGUAAUGCCCCUCCCCUCUCACACCUCCGGGAUCAGUCCCCGGAGGGCGGUCGGGGAGGGGACACCU
binding result (aCBF5;aNOP10): binds | binding result (aCBF5): binds
